Tests used:
HLA-A*02:01 [1] = test: IEDB peptide-MHC binding, purified MHC/direct/fluorescence; filed as Kd, often an IC50 or EC50 that approximates it; ≥ and ≤ were set here for values at or beyond the usual limits of such assays
HLA-A*69:01 = test: as above; conditions: source organism: Amur virus
HLA-A*02:03 = test: IEDB peptide-MHC binding, purified MHC/competitive/radioactivity; filed as Kd, often an IC50 or EC50 that approximates it; ≥ and ≤ were set here for values at or beyond the usual limits of such assays
HLA-A*02:06 = test: as above
HLA-A*02:02 = test: as above
HLA-A*26:01 = test: as above
HLA-A*02:01 [2] = test: IEDB peptide-MHC binding, purified MHC/competitive/fluorescence; ≥ and ≤ were set here for values at or beyond the usual limits of such assays; conditions: source organism: Sudan ebolavirus
HLA-B*51:01 = test: IEDB peptide-MHC binding, purified MHC/competitive/radioactivity; filed as Kd, often an IC50 or EC50 that approximates it; ≥ and ≤ were set here for values at or beyond the usual limits of such assays
HLA-B*07:02 = test: IEDB peptide-MHC binding, purified MHC/direct/fluorescence; filed as Kd, often an IC50 or EC50 that approximates it; ≥ and ≤ were set here for values at or beyond the usual limits of such assays; conditions: source organism: Salmonella enterica subsp. enterica serovar Typhimurium
HLA-B*15:01 = test: as above; conditions: source organism: Salmonella enterica subsp. enterica serovar Typhimurium
HLA-B*58:01 = test: as above; conditions: source organism: Salmonella enterica subsp. enterica serovar Typhimurium
[3] = source organism: Vaccinia virus WR
[4] = source organism: Dengue virus 2 Jamaica/1409/1983
[5] = source organism: Mammarenavirus guanaritoense
[6] = source organism: Dengue virus 1 Brazil/97-11/1997
[7] = source organism: Vaccinia virus Copenhagen
[8] = source organism: SARS coronavirus Tor2

Sequence	Kd (HLA-A*02:03; [3]) [nM]	Kd (HLA-A*02:06; [3]) [nM]	Kd (HLA-A*02:02; [3]) [nM]	further results
SLFSLLPGV				Kd (HLA-A*02:01 [1]; source organism: Amur virus): ≤ 1 nM; Kd (HLA-A*69:01): ≤ 1 nM
SVDVDIYDA	11900	953	1200	
SVIEKMETL				Kd (HLA-A*26:01; [4]): 152 nM
TIAVSVYGA	9.89	98.7	25.4	
TLPELNLSL	22.6	802	135	
TMSIYIAVA	40.8	786	80.9	
TNAEFTFQL				Kd (HLA-A*02:03; [5]): 15000 nM; Kd (HLA-A*02:06; [5]): 3620 nM; Kd (HLA-A*02:02; [5]): 404 nM
TQVKELGIAI	704	3.87	2170	
TSIGLLCVM				Kd (HLA-A*26:01; source organism: Dengue virus 1 Singapore/S275/1990): 2450 nM
TTLPSQNST				IC50 (HLA-A*02:01 [2]): ≥ 206000 nM
TVITPMMRH				Kd (HLA-A*26:01; [6]): 1700 nM
VLIAGIILLI				Kd (HLA-A*02:03; [7]): 34.6 nM; Kd (HLA-A*02:06; [7]): 1020 nM; Kd (HLA-A*02:02; [7]): 8.84 nM
VLTSVDIETA	421	1410	62.4	
VMATEEPTT				IC50 (HLA-A*02:01 [2]): ≥ 144000 nM
VMYAFTTPLI	4.82	11.6	0.718	
VPLAGPLIA				Kd (HLA-B*51:01; [6]): 14800 nM
VPLQWIASAI				Kd (HLA-B*51:01; source organism: Dengue virus 3 Sri Lanka/1266/2000): 21.7 nM
VQYRILPMII	606	395	10100	
VVIVENDNVI	10200	10700	14700	
WISDNTHIYL	1.16	1.77	0.143	
WPLNEAIMAV				Kd (HLA-B*51:01; [4]): 470 nM
YASALVLLI				Kd (HLA-A*02:03; [8]): 4.87 nM; Kd (HLA-A*02:06; [8]): 8.7 nM; Kd (HLA-A*02:02; [8]): 3.2 nM
YLGPTIRVW				Kd (HLA-B*07:02): 13200 nM; Kd (HLA-A*02:01 [1]; source organism: Salmonella enterica subsp. enterica serovar Typhimurium): 1870 nM; Kd (HLA-B*15:01): 1220 nM; Kd (HLA-B*58:01): 127 nM
YLLFNHFSV	1.59	0.725	1.24	

From the Immune Epitope Database (IEDB)
